Data taken from patent publication US20240270821A1, “GIP/GLP1/GCG TRI-RECEPTOR AGONISTS AND USES THEREOF” (priority 2023, published 2024).
Changes are numbered by the printed parent chain.

How the values were obtained:
Experiment in all cases: cell-based or functional assay
[1] = target: T1, human GIP receptor (human) (UniProt P48546)
T1 sequence (looked up): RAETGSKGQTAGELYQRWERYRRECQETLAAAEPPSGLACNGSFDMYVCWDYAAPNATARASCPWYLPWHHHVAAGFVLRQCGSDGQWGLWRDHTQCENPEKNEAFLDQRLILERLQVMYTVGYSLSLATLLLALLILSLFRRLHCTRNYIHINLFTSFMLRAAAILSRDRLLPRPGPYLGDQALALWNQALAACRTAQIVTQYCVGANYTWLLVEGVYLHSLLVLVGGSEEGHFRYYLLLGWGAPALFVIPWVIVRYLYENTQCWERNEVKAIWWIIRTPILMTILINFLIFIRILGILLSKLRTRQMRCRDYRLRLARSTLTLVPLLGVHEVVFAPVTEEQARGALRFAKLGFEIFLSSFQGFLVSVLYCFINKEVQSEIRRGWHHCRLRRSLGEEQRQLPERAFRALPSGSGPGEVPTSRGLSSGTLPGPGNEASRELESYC

[2] = target: hGLP-1R (Homo sapiens, UniProt P43220)
[3] = target: human glucagon receptor (human) (UniProt P47871)
Sequence of human glucagon receptor (human) (P47871 26-477): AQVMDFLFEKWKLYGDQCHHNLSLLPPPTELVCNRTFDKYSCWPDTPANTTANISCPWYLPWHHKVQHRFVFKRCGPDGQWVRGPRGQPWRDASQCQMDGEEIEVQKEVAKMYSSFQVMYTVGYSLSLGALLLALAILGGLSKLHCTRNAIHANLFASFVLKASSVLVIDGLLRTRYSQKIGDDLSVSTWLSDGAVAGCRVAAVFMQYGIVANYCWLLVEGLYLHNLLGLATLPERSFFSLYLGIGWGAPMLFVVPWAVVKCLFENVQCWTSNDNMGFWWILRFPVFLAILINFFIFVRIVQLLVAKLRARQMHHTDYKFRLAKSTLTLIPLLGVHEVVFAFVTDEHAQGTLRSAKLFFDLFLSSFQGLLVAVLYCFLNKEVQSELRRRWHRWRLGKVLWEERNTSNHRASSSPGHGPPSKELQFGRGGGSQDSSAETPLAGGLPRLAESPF

Sequence of hGLP-1R (P43220 24-463): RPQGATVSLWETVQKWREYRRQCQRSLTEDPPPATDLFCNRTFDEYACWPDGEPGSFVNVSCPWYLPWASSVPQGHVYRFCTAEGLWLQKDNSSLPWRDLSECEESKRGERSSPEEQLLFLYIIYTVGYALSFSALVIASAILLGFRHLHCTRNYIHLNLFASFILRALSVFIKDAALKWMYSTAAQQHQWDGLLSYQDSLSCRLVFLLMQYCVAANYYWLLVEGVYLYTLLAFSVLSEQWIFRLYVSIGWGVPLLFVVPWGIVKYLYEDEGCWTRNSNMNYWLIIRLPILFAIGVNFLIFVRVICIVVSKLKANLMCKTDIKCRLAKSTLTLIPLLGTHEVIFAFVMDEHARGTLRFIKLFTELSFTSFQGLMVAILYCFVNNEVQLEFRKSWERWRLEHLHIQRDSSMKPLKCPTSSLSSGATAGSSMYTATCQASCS

B1: Example 103 (peptide)
chain: YXQGTFTSDFSXXLDKKAQXAFIEWLLAGGPSSGEPPPSGE
modifications: synthetic construct; SITE 2: note = 2-Aminoisobutyric Acid; SITE 12: note = L-ornithine; SITE 13: note = alpha-methyl-leucine; SITE 17: note = Lysine is chemically modified through conjugation of the epsilon-amino group of the Lysine side chain with (2-[2-(2-Amino-ethoxy)-ethoxy]-acetyl)-(gamma-Glu)
Relative cAMP EC50 [1]: 0.2 nM
cAMP Rel EC50, nM (in the presence of 1% HSA) [1]: 35.1 nM
Relative cAMP EC50 [2]: 3.27 nM
cAMP Rel EC50, nM (in the presence of 1% HSA) [2]: 482 nM
Relative cAMP EC50 [3]: 10.5 nM
cAMP Rel EC50, nM (in the presence of 1% HSA) [3]: 2590 nM

B2: Example 1085 (peptide)
chain: B1 chain with F10X, X12Q, W25Y, L27I, E35A
modifications: non-natural residues; lipidated Lys; C-terminal amide; synthetic construct; SITE 2: note = 2-Aminoisobutyric Acid; SITE 10: note = 3-(4-Pyridyl)-L-alanine; SITE 13: note = alpha-methyl-leucine; SITE 17: note = Lysine is chemically modified through conjugation of the epsilon-amino group of the Lysine side chain with D-Glutamic acid-(gamma-Glu)-CO-(CH2)16
Relative cAMP EC50 [1]: 0.0827 nM
cAMP Rel EC50 (1% HSA) [1]: 9.84 nM
Relative cAMP EC50 [2]: 1.28 nM
cAMP Rel EC50 (1% HSA) [2]: 188 nM
Relative cAMP EC50 [3]: 11.6 nM
cAMP Rel EC50 (1% HSA) [3]: 1370 nM

B3: Example 1087 (peptide)
chain: B1 chain with F10X, X12Q, W25Y, L27I, E35A
modifications: Aib, 4Pal, αMeL, Me4Pal; acylated lysine; amide; synthetic construct; SITE 2: note = 2-Aminoisobutyric Acid; SITE 10: note = 3-(4-Pyridyl)-L-alanine; SITE 13: note = alpha-methyl-leucine; SITE 17: note = Lysine is chemically modified through conjugation of the epsilon-amino group of the Lysine side chain with (Glu)2-(gamma-Glu)-CO-(CH2)16-CO2H; SI
Relative cAMP EC50 [1]: 0.207 nM
cAMP Rel EC50 (1% HSA) [1]: 23.3 nM
Relative cAMP EC50 [2]: 2.63 nM
cAMP Rel EC50 (1% HSA) [2]: 439 nM
Relative cAMP EC50 [3]: 15.4 nM
cAMP Rel EC50 (1% HSA) [3]: 2460 nM

B4: Example 1086 (peptide)
chain: B1 chain with F10X, X12Q, W25Y, L27I, E35A
modifications: Aib, 4Pal, αMeL, Me4Pal; acylated K; C-terminal amide; synthetic construct; SITE 2: note = 2-Aminoisobutyric Acid; SITE 10: note = 3-(4-Pyridyl)-L-alanine; SITE 13: note = alpha-methyl-leucine; SITE 17: note = Lysine is chemically modified through conjugation of the epsilon-amino group of the Lysine side chain with (Glu)-(gamma-Glu)-CO-(CH2)16-CO2H; SIT
Relative cAMP EC50 [1]: 0.117 nM
cAMP Rel EC50 (1% HSA) [1]: 21.2 nM
Relative cAMP EC50 [2]: 1.23 nM
cAMP Rel EC50 (1% HSA) [2]: 496 nM
Relative cAMP EC50 [3]: 12 nM
cAMP Rel EC50 (1% HSA) [3]: 3140 nM

B5: Example 104 (peptide)
chain: B1 chain with A28E, P31X, E35A
modifications: synthetic construct; SITE 2: note = 2-Aminoisobutyric Acid; SITE 12: note = L-ornithine; SITE 13: note = alpha-methyl-leucine; SITE 17: note = Lysine is chemically modified through conjugation of the epsilon-amino group of the Lysine side chain with (2-[2-(2-Amino-ethoxy)-ethoxy]-acetyl)-(gamma-Glu)
Relative cAMP EC50 [1]: 0.251 nM
cAMP Rel EC50, nM (in the presence of 1% HSA) [1]: 97.5 nM
Relative cAMP EC50 [2]: 3.39 nM
cAMP Rel EC50, nM (in the presence of 1% HSA) [2]: 698 nM
Relative cAMP EC50 [3]: 7.58 nM
cAMP Rel EC50, nM (in the presence of 1% HSA) [3]: 1260 nM

B6: Example 1069 (peptide)
chain: YXQGTFTSDXSXXLDXKAQXAFIEYLLAGGPSSGAPPPSGSEE
modifications: non-natural residues; acylated Lys; C-terminal amide; synthetic construct; SITE 2: note = 2-Aminoisobutyric Acid; SITE 10: note = 3-(4-Pyridyl)-L-alanine; SITE 12: note = L-ornithine; SITE 13: note = alpha-methyl-leucine; SITE 16: note = L-ornithine; SITE 17: note = Lysine is chemically modified through conjugation of the epsilon-amino group of the Lys
Relative cAMP EC50 [1]: 0.417 nM
cAMP Rel EC50 (1% HSA) [1]: 39.5 nM
Relative cAMP EC50 [2]: 8.87 nM
cAMP Rel EC50 (1% HSA) [2]: 1290 nM
Relative cAMP EC50 [3]: 21.2 nM
cAMP Rel EC50 (1% HSA) [3]: 2160 nM

B7: Example 1095 (peptide)
chain: B6 chain with X12Q, L27I, G29X, A35E
modifications: non-natural residues, C-terminal amide, acylated Lys with fatty diacid; synthetic construct; SITE 2: note = 2-Aminoisobutyric Acid; SITE 10: note = 3-(4-Pyridyl)-L-alanine; SITE 13: note = alpha-methyl-leucine; SITE 16: note = L-ornithine; SITE 17: note = Lysine is chemically modified through conjugation of the epsilon-amino group of the Lysine side chain with (2-[2-(2-
Relative cAMP EC50 [1]: 0.065 nM
cAMP Rel EC50 (1% HSA) [1]: 8.73 nM
Relative cAMP EC50 [2]: 1.17 nM
cAMP Rel EC50 (1% HSA) [2]: 159 nM
Relative cAMP EC50 [3]: 2.75 nM
cAMP Rel EC50 (1% HSA) [3]: 337 nM

B8: Example 1096 (peptide)
chain: B6 chain with X12Q, L27I, A28Q, G29X, A35E
modifications: non-natural residues; lipidated Lys AEEA-γGlu-C18 diacid; C-term amide; synthetic construct; SITE 2: note = 2-Aminoisobutyric Acid; SITE 10: note = 3-(4-Pyridyl)-L-alanine; SITE 13: note = alpha-methyl-leucine; SITE 16: note = L-ornithine; SITE 17: note = Lysine is chemically modified through conjugation of the epsilon-amino group of the Lysine side chain with (2-[2-(2-
Relative cAMP EC50 [1]: 0.0799 nM
cAMP Rel EC50 (1% HSA) [1]: 11.6 nM
Relative cAMP EC50 [2]: 1.47 nM
cAMP Rel EC50 (1% HSA) [2]: 194 nM
Relative cAMP EC50 [3]: 3.94 nM
cAMP Rel EC50 (1% HSA) [3]: 397 nM

B9: Example 1094 (peptide)
chain: B6 chain with X12Q, Y25X, L27I, G29X, A35E
modifications: non-natural residues (Aib, 4Pal, Orn, Me4Pal, αMeY); lipidated K; amide; synthetic construct; SITE 2: note = 2-Aminoisobutyric Acid; SITE 10: note = 3-(4-Pyridyl)-L-alanine; SITE 13: note = alpha-methyl-leucine; SITE 16: note = L-ornithine; SITE 17: note = Lysine is chemically modified through conjugation of the epsilon-amino group of the Lysine side chain with (gamma-Gl)
Relative cAMP EC50 [1]: 0.0515 nM
cAMP Rel EC50 (1% HSA) [1]: 5.86 nM
Relative cAMP EC50 [2]: 0.623 nM
cAMP Rel EC50 (1% HSA) [2]: 64.4 nM
Relative cAMP EC50 [3]: 5.84 nM
cAMP Rel EC50 (1% HSA) [3]: 831 nM

B10: Example 1092 (peptide)
chain: B6 chain with X12Q, L27I, G29X, A35E
modifications: non-natural residues, acylated Lys ((γGlu)2-C18 diacid), C-terminal amide; synthetic construct; SITE 2: note = 2-Aminoisobutyric Acid; SITE 10: note = 3-(4-Pyridyl)-L-alanine; SITE 13: note = alpha-methyl-leucine; SITE 16: note = L-ornithine; SITE 17: note = Lysine is chemically modified through conjugation of the epsilon-amino group of the Lysine side chain with (gamma-Gl)
Relative cAMP EC50 [1]: 0.0648 nM
cAMP Rel EC50 (1% HSA) [1]: 7.83 nM
Relative cAMP EC50 [2]: 1.33 nM
cAMP Rel EC50 (1% HSA) [2]: 230 nM
Relative cAMP EC50 [3]: 3.45 nM
cAMP Rel EC50 (1% HSA) [3]: 506 nM

B11: Example 1070 (peptide)
chain: B6 chain with X12Q, Y25X, L27I, A28E
modifications: Aib, 4Pal, αMeL, Orn, Me4Pal, αMeY; acylated Lys; C-terminal amide; synthetic construct; SITE 2: note = 2-Aminoisobutyric Acid; SITE 10: note = 3-(4-Pyridyl)-L-alanine; SITE 13: note = alpha-methyl-leucine; SITE 16: note = L-ornithine; SITE 17: note = Lysine is chemically modified through conjugation of the epsilon-amino group of the Lysine side chain with D-Glutami
Relative cAMP EC50 [1]: 0.167 nM
cAMP Rel EC50 (1% HSA) [1]: 27.3 nM
Relative cAMP EC50 [2]: 1.54 nM
cAMP Rel EC50 (1% HSA) [2]: 321 nM
Relative cAMP EC50 [3]: 20.2 nM
cAMP Rel EC50 (1% HSA) [3]: 1940 nM

B12: Example 1072 (peptide)
chain: B6 chain with X12Q, E24Q, Y25X, L27I, A28E
modifications: Aib, 4Pal, αMeL, Orn, Me4Pal, αMeY; acylated Lys; C-terminal amide; synthetic construct; SITE 2: note = 2-Aminoisobutyric Acid; SITE 10: note = 3-(4-Pyridyl)-L-alanine; SITE 13: note = alpha-methyl-leucine; SITE 16: note = L-ornithine; SITE 17: note = Lysine is chemically modified through conjugation of the epsilon-amino group of the Lysine side chain with D-Glutami
Relative cAMP EC50 [1]: 0.157 nM
cAMP Rel EC50 (1% HSA) [1]: 9.94 nM
Relative cAMP EC50 [2]: 0.889 nM
cAMP Rel EC50 (1% HSA) [2]: 95.1 nM
Relative cAMP EC50 [3]: 10.5 nM
cAMP Rel EC50 (1% HSA) [3]: 914 nM

B13: Example 1074 (peptide)
chain: B6 chain with X12Q, Y25X, L27I
modifications: non-natural residues; C18 diacid-γ-Glu acyl on Lys; C-terminal amide; synthetic construct; SITE 2: note = 2-Aminoisobutyric Acid; SITE 10: note = 3-(4-Pyridyl)-L-alanine; SITE 13: note = alpha-methyl-leucine; SITE 16: note = L-ornithine; SITE 17: note = Lysine is chemically modified through conjugation of the epsilon-amino group of the Lysine side chain with D-Glutami
Relative cAMP EC50 [1]: 0.0745 nM
cAMP Rel EC50 (1% HSA) [1]: 8.49 nM
Relative cAMP EC50 [2]: 0.794 nM
cAMP Rel EC50 (1% HSA) [2]: 101 nM
Relative cAMP EC50 [3]: 22.8 nM
cAMP Rel EC50 (1% HSA) [3]: 1990 nM

B14: Example 1091 (peptide)
chain: B6 chain with X12Q, L27I, G29X
modifications: non-natural residues; acylated Lys C18 diacid; C-term amide; synthetic construct; SITE 2: note = 2-Aminoisobutyric Acid; SITE 10: note = 3-(4-Pyridyl)-L-alanine; SITE 13: note = alpha-methyl-leucine; SITE 16: note = L-ornithine; SITE 17: note = Lysine is chemically modified through conjugation of the epsilon-amino group of the Lysine side chain with (gamma-Gl)
Relative cAMP EC50 [1]: 0.0592 nM
cAMP Rel EC50 (1% HSA) [1]: 5.79 nM
Relative cAMP EC50 [2]: 1.23 nM
cAMP Rel EC50 (1% HSA) [2]: 145 nM
Relative cAMP EC50 [3]: 4.67 nM
cAMP Rel EC50 (1% HSA) [3]: 550 nM
